# According to patent US8357518B2, “Thermostable enzymes for the hydrolysis of mannan-containing polysaccharides” (The Board of Trustees of the University of Illinois, priority 2010, dated 2013):
# How the values were obtained:
# Conditions in all cases: other: Man5B 3 nM, oligosaccharide 30 μM, citrate buffer 50 mM, pH 5.5, 5 min, triplicate
# [1] = substrate: OC[C@H]1O[C@@H](O[C@H]2[C@H](O)[C@@H](O)[C@H](O[C@H]3[C@H](O)[C@@H](O)C(O)O[C@@H]3CO)O[C@@H]2CO)[C@H](O)[C@@H](O)[C@@H]1O; assay: purified protein, by the assay type
# [2] = substrate: OC[C@H]1O[C@@H](O[C@H]2[C@H](O)[C@H](O)[C@H](O[C@H]3[C@H](O)[C@H](O)[C@H](O[C@H]4[C@H](O)[C@H](O)[C@H](O[C@H]5[C@H](O)[C@H](O)[C@H](O[C@H]6[C@H](O)[C@H](O)C(O)O[C@@H]6CO)O[C@@H]5CO)O[C@@H]4CO)O[C@@H]3CO)O[C@@H]2CO)[C@@H](O)[C@@H](O)[C@@H]1O; assay: purified protein, by the assay type
# [3] = substrate: OC[C@H]1O[C@@H](O[C@H]2[C@H](O)[C@@H](O)[C@H](O[C@H]3[C@H](O)[C@@H](O)[C@H](O[C@H]4[C@H](O)[C@@H](O)[C@H](O[C@H]5[C@H](O)[C@@H](O)C(O)O[C@@H]5CO)O[C@@H]4CO)O[C@@H]3CO)O[C@@H]2CO)[C@H](O)[C@@H](O)[C@@H]1O; assay: Catalytic efficiency with oligosaccharides, HPAEC (Man5B); assay type: biochemical, Caldanaerobius polysaccharolyticus
# Method: (§1) Cloning, expression, and purification of Man5A-TM1, Man5A-TM2 and Man5B. C. polysaccharolyticus was cultured in TYG medium and DNA was isolated from mid-log cultures and purified using the Qiagen DNeasy Blood and Tissue kit with an integrated RNase treatment step. The genome of C. polysaccharolyticus was partially sequenced by the W. M. Keck Biotechnology Center at the University of Illinois at Urbana-Champaign. A Newbler assembly was generated which is comprised of ½ plate of FLX PE 454 data and ½ plate of 8 kb paired-end GSFLX Titanium data using a Genome Sequencer instrument from 454 Life Sciences (Branford, Conn.). The partial genome sequence was uploaded onto the Rapid Annotation using Subsystem Technology (RAST) server (Aziz et al., BMC Genomics, 9:75, 2008). Auto-annotation of the C. polysaccharolyticus partial genome sequence identified ORF0760 as a gene predicted to encode a bifunctional β-D-mannanase/endoglucanase (Man5B). Man5A was previously identified in a recombinant phage library of C. polysaccharolyticus genomic DNA, which was screened for endoglucanase activity (Cann et al., J Bacteriol, 181:1643, 1999) and the full sequence of this gene was also identified in the partial genome sequence for C. polysaccharolyticus.
# (§2) The DNA sequence corresponding to man5B was amplified by the PicoMaxx high fidelity PCR kit using genomic DNA as the template with the primer set Man5B-Forward and Man5B-Reverse (Table 1-1). The primers were engineered to incorporate a 5′-[…] (SEQ ID NO: 54) extension in Man5B-F and a 5′-[…] (SEQ ID NO: 55) extension in Man5B-R, which facilitated subsequent directional cloning. The resultant man5B amplicon was then digested with T4 DNA polymerase exonuclease activity, annealed with a similarly digested pET-46b vector and introduced into E. coli JM109 by electroporation. Man5A-TM1 was amplified using genomic DNA as template with primers Man5A-TM1-F and Man5A-TM1-R (Table 1-1). The primer sets for Man5A-TM1 and Man5A-TM2 were designed to include 5′-NdeI and 3′-XhoI restriction sites for subsequent directional cloning. The resulting amplicons were then cloned into the pGEM-T vector via TA-cloning and subcloned in-frame with the hexahistidine (His6) encoding sequence of a modified pET-28a expression vector via its NdeI-XhoI polylinker site. The truncated protein Man5A-TM2 originally named ManA-SLH-CBD was cloned as described in a previous study (Cann et al., J Bacteriol, 181:1643, 1999). Expression of each of the resulting gene constructs yielded fusion proteins containing an N-terminal polyhistidine tag sequence to facilitate affinity purification via metal chelate chromatography. The resulting plasmid constructs pET46-Man5B, pET28a-Man5A-TM1, and pET-28a-Man5A-TM2 were sequenced to confirm the integrity of the cloned genes (W. M. Keck Center for Comparative and Functional Genomics at the University of Illinois at Urbana-Champaign).
# (§3) The plasmid constructs were then introduced into E. coli BL-21 CodonPlus (DE3) RIL competent cells by heat shock, and grown overnight in lysogeny broth (LB) agar medium supplemented with ampicillin (100 μg/mL) and chloramphenicol (50 μg/mL) at 37° C. After 12 h, single colonies were selected and used to inoculate fresh LB (10 mL) supplemented with the antibiotics above at the same concentrations, followed by culturing with aeration for 8 h at 37° C. […]
# [4] = substrate: OC[C@H]1O[C@@H](O[C@H]2[C@H](O)[C@H](O)C(O)O[C@@H]2CO)[C@@H](O)[C@@H](O)[C@@H]1O; assay: as above; assay type: biochemical, Caldanaerobius polysaccharolyticus
# Method: as §1, §2, §3
# [5] = substrate: OC[C@H]1O[C@@H](O[C@H]2[C@H](O)[C@H](O)[C@H](O[C@H]3[C@H](O)[C@H](O)[C@H](O[C@H]4[C@H](O)[C@H](O)[C@H](O[C@H]5[C@H](O)[C@H](O)C(O)O[C@@H]5CO)O[C@@H]4CO)O[C@@H]3CO)O[C@@H]2CO)[C@@H](O)[C@@H](O)[C@@H]1O; assay: as above; assay type: biochemical, Caldanaerobius polysaccharolyticus
# Method: as §1, §2, §3
# [6] = substrate: OC[C@H]1O[C@H](OC[C@H]2OC(O)[C@@H](O)[C@@H](O)[C@@H]2O[C@@H]2O[C@H](CO)[C@@H](O)[C@H](O)[C@@H]2O)[C@H](O)[C@@H](O)[C@H]1O; assay: as above; assay type: biochemical, Caldanaerobius polysaccharolyticus
# Method: as §1, §2, §3
# [7] = substrate: OC[C@H]1O[C@H](OC[C@H]2OC(O)[C@@H](O)[C@@H](O)[C@@H]2O[C@@H]2O[C@H](CO)[C@@H](O[C@@H]3O[C@H](CO)[C@@H](O)[C@H](O)[C@@H]3O)[C@H](O)[C@@H]2O)[C@H](O)[C@@H](O)[C@H]1O; assay: as above; assay type: biochemical, Caldanaerobius polysaccharolyticus
# Method: as §1, §2, §3
protein,measurement,setting,value
"Caldanaerobius polysaccharolyticus endo-β-mannanase Man5B, wild type, SEQ ID NO: 31 (Caldanaerobius polysaccharolyticus) (protein) MKKYGFNFQWMYVWEEGREPEPPDKKALDFLAETGFNFVRIPVDYRFWTRNFDYFNPDKKVFEYIDLYLRECSARNIHMCLNLHRAPGYCINRNDIERDNLWLDKRAQDGFVYQWELFAKRYKGVSSKFLSFDLVNEPPNIGQYGLTRENHASLIIRTVEAIRKIDPDREIVIDGLGGGNIAMPELAHLGVVHSGRGYQPMALTHYQASWWDGHKGLPEPYYPDLLWQGKVWNKDTLREYYKPWRDLQQKGVNVHIGEFGCFNKTSNDVAIRWFEDVLSLYKEFEWGYSLWNFKGPFGIVEHGRPGAKYEYYRGFKVDRELLDLLVENRV",kcat/Km,[1],1000 ± 70 M⁻¹ s⁻¹
same,kcat/Km,[2],(2.7 ± 0.7) × 10^2 mM^−1 s^−1
same,kcat/Km,[3],17000 ± 3000 M⁻¹ s⁻¹
same,kcat/Km,[4],230 ± 30 M⁻¹ s⁻¹
same,kcat/Km,[5],(2.2 ± 0.3) × 10^2 mM^−1 s^−1
same,kcat/Km,[6],1500 ± 200 M⁻¹ s⁻¹
same,kcat/Km,[7],30000 ± 7000 M⁻¹ s⁻¹
